{
  "source": "patent US20020187934A1",
  "target": "purified HLA-DR4Dw4 (human)",
  "assay": "Test A: competition with biotin-FHA307-320 for purified HLA-DR4Dw4, ELISA read-out",
  "data": [
    {"substance": "Phv-Arg-Ala-IIb-Thr-Ala-Ala-Ala-Papa-NH2 (SEQ ID NO:1) (peptide)", "values": [
      {"measurement": "concentration showing significant binding", "value": "< 0.1", "unit": "µM"}
    ]}
  ]
}
